The values below come from patent publication US20120121583A1 (Genentech, published 2012).

Experiment [1] deals with T1, Human recombinant soluble TWEAK (human, UniProt O43508 99-249).
T1 sequence: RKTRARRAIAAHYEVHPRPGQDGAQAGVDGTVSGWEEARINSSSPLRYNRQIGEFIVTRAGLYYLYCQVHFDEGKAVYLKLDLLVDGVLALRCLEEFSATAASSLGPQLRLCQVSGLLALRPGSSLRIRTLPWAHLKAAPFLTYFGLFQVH
Description: cell-based or functional assay.

The target in experiment [2] is T2, Biotinylated TWEAK (Homo sapiens (Human), UniProt O43508 99-249, Biotinylated for capture on the streptavidin sensor; the site or sites of biotinylation are not stated. The active form is a soluble homotrimer; one protomer is given.).
T2 sequence: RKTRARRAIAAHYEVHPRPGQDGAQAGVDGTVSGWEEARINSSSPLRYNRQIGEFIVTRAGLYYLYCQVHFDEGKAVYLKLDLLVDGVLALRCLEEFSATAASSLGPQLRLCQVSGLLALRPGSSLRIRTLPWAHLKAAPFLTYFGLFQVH
Description: Biacore cross-blocking on immobilised biotinylated TWEAK; binding of antibody 2 after saturation with competitor antibody 1 TW-301chi (row), 100 nM each. As to the method: (§1) Because of the individual biochemical properties of the TWEAK protein another method had to be developed using TWEAK as ligand. Biotinylated TWEAK was immobilized on the streptavidin-coated chip surface and epitope coverage of consecutively injected antibodies (antibody 1) was measured. The aim was to detect the relative binding levels of a secondary antibody (antibody 2) in the presence of an already bound primary antibody. From these relative binding levels a quotient was calculated (Ab2/Ab1, molar ratio given in %, table 7).
(§2) 5 nM of biotinylated TWEAK was immobilized at 20 μl/min for 1 min on a streptavidin coated sensor flow cell. Primary and secondary mAbs were consecutively injected at 10 μl/min for 4 min into the system at 100 nM each until saturation of the respective TWEAK epitopes was achieved. As a reference an SA coated flow cell was used.
(§3) The system was washed with HBS-ET for 20 sec at 30 μl/min followed by two regeneration steps with 1 min at 30 μl/min 6 M GuadHCl and 100 mM HCl. […] The process was repeated by the immobilization of native biotinylated TWEAK protein (feed batch mode) on the same flow cell until the streptavidin sensor surface was completely saturated by biotinylated TWEAK.

The target of experiment [3] is T3, Biotinylated human soluble TWEAK (amino acids 99-249 of SEQ ID NO: 60) (human, UniProt O43508 99-249, biotinylated (sites not given)).
T3 construct: Immobilised on the streptavidin sensor in the Biacore half-life assay; also called Human TWEAK; soluble human TWEAK
T3 sequence: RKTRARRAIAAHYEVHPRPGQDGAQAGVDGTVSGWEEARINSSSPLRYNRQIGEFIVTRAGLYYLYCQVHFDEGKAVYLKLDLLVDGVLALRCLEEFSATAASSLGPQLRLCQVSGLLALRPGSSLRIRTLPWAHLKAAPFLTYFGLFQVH
Description: Biacore SPR, biotinylated TWEAK on SA sensor, antibody 100 nM as analyte, 25 C; t1/2 = ln(2)/(60 x kd). As to the method:
A Biacore 2000 instrument was used with a Biacore streptavidin coated sensor mounted into the system. The system buffer HBS-ET (10 mM HEPES pH 7.4, 150 mM NaCl, 1 mM EDTA, 0.05% Tween® 20) was used at a flow rate of 100 μl/min. The sample buffer was the system buffer. Biotinylated human soluble TWEAK (amino acids 99-249 of SEQ ID NO: 60) and biotinylated murine soluble TWEAK (amino acids 81-225 of SEQ ID NO: 61) was immobilized on different flow cells on the SA sensor at 150 RU each. The flow cell FC1 was used as a blank reference cell. Each antibody was injected into the system as an analyte at 100 nM at 100 μl/min for 2 min association time. The dissociation of the immune complexes were monitored for 5 min. The sensor surface was washed with HBS-ET for 10 seconds and regenerated using 2×2 minutes injections with 10 mM glycine pH 2.25. This procedure was done at 25° C. The kinetically rate limiting step of the complex dissociation phase in the interval [240 s-300 s] was taken to calculate the dissociation rate kd [1/s] (Biacore Evaluation Software 4.0). According to the equation t1/2 diss=ln(2)/(60×kd), the half-life of the immunocomplexes in minutes was calculated.

In experiment [4] the target is T4, human Flag-tagged soluble TWEAK (amino acids 106-249) (human, UniProt O43508 106-249).
T4 construct: N-terminal placement here is only an order of listing; not shown: Flag tag
T4 sequence: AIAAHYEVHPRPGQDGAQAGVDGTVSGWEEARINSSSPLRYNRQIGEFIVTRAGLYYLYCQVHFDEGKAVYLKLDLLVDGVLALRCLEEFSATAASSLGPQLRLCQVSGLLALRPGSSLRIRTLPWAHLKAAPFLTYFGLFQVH
Put plainly: competition ELISA: antibody pre-incubated with human Flag-TWEAK 2.5 ng/ml, binding to coated human Fn14:Fc. As to the method:
96-well Maxisorp® plates (Nunc) were coated with 100 μl 1 μg/ml human Fn14:Fc (extracellular domain of human Fn14 (amino acids 1-75) fused to Fc portion of human IgG1) in PBS per well for 1.5 h at room temperature and blocked with a solution of 5% FBS in PBS for 30 minutes at room temperature under shaking. […] Wells were filled with 100 μl of anti-FLAG-HRP detection antibody, diluted 1:5000 in blocking buffer, and incubated for 1 h at room temperature. After four more wash steps, the signal was developed by addition of 100 μl 3,3,5,5-Tetramethylbenzidine (TMB) solution for approximately ten minutes. The reaction was stopped by adding 100 μl of 1 N HCl, and absorbance measured at 450 nm (reference wavelength 620 nm).

Experiment [5] has as its target T2, Biotinylated TWEAK. Description: Biacore cross-blocking on immobilised biotinylated TWEAK; binding of antibody 2 after saturation with competitor antibody 1 TW-304chi (row), 100 nM each. The procedure: as §1, §2, §3
Experiment [6] addresses T2, Biotinylated TWEAK. Description: Biacore cross-blocking on immobilised biotinylated TWEAK; binding of antibody 2 after saturation with competitor antibody 1 TW-305chi (row), 100 nM each. As to the method:
as §1, §2, §3

The target in experiment [7] is Mouse soluble TWEAK (mouse) (UniProt O54907). Description: competition ELISA: antibody pre-incubated with mouse soluble TWEAK 4 ng/ml, binding to coated mouse Fn14:Fc.

B1: TW-305chi (antibody, human IgG1, kappa, V domains shown)
VH: QEQLVESGGGLVQPGGSLTLSCKASGFDFSTYYMSWVRQAPGKGLEWIGTVYVRQGTTYYASWLNGRFTISSDNAQNTVDLKMNSLTAADTATYFCAKGGYNYDDAFVIWGPGTLVTVSF
VL: AIEMTQTPFSVSAAVGGTVTINCQASQNIYSNLAWYQQKPGQPPKLLMYTASYLASGVPSRFKGSGSRTEYTLTISGVQCADAATYYCQTAYYNSRPDTVAFGGGTEVVVKR
notes: also called chimeric antibody 305; Antibody 305 (chimeric)
Regarding B1, the “IL-8 Secretion IC50” value in experiment [1] worked out at 104 ng/mL. The “MR % (Ab2/Ab1 molar ratio)” value in experiment [2] stood at 9%; in experiment [5] it was 3%; in experiment [6], 0%. The molecule further gave a t/2 diss in experiment [3] of 147 min. Moreover, in experiment [4], the IC50 was 2.6 ng/mL.

B2: TW-301 (antibody, V domains shown)
VH: QSLEESGGGLVKPGASLTLTCTASGFTFNANYWICWVRQAPGKGLEWIACIYGGGNSGAYYASWATGRFTISRTSSTTVTLQMTSLTAADTATYFCARGPISRDLWGPGTLVTVSL
VL: DVVMTQTPASVSEPVGGTVTIKCQASQSIYSSLAWYQQKPGQPPKLLIYDAFDLASGVSSRFTGSGSGTQFTLTISDLECADAATYYCQSTDYGNSWDGNPFGGGTEVVVT
notes: also called Antibody 301; rabbit antibody 301
Consider B2, for which the results for the IC50 in experiment [7] and in experiment [4] were 4.7 ng/mL and 3.4 ng/mL, respectively. In addition, the “IL-8 Secretion IC50” value in experiment [1] amounted to 128 ng/mL.

B3: TW-301chi (antibody, human IgG1, kappa, V domains shown)
VH: QSLEESGGGLVKPGASLTLTCTASGFTFNANYWICWVRQAPGKGLEWIACIYGGGNSGAYYASWATGRFTISRTSSTTVTLQMTSLTAADTATYFCARGPISRDLWGPGTLVTVSL
VL: DVVMTQTPASVSEPVGGTVTIKCQASQSIYSSLAWYQQKPGQPPKLLIYDAFDLASGVSSRFTGSGSGTQFTLTISDLECADAATYYCQSTDYGNSWDGNPFGGGTEVVVTR
notes: also called chimeric antibody 301
Turning to B3, the IC50 is 6.4 ng/mL in experiment [7] and 2.8 ng/mL in experiment [4]. Also, the “IL-8 Secretion IC50” value in experiment [1] came out at 121 ng/mL. Besides, the “MR % (Ab2/Ab1 molar ratio)” value in experiment [2], in experiment [5] and in experiment [6] was 0% each time. Further, the t/2 diss in experiment [3] turned out to be 110 min.

B4: TW-304chi (antibody, human IgG1, kappa, V domains shown)
VH: QSLEESGGDLVKPGASLTLTCKASGFSFSSTYYMCWVRQAPGKGLEWIGCIYVGSSGAPYYASWAKGRFTISKTSSTTVALQMTSLTPADTATYVCTRSVHFGDLWGPGTLVTVSS
VL: DVVMTQTPSPVSAAVGGTVTIKCQASQSIGNDLSWYQQKPGQRPKLLIYSVSTLASGVPSRFKGSGSGTEYSLTISDVQCADAATYYCQCIDYGNNYVGNTFGGGTEVVVKR
notes: also called chimeric antibody 304
Take B4: in experiment [1], the “IL-8 Secretion IC50” value was 122 ng/mL. In addition, the “MR % (Ab2/Ab1 molar ratio)” value was determined as 6% in experiment [2], 0% in experiment [5] and 1% in experiment [6]. In experiment [3], the t/2 diss came to 37 min. Further, in experiment [4], the IC50 stood at 2.6 ng/mL.
